Experiments:
[1] = target: FGE-HA (human formylglycine generating enzyme, wild type, C-terminal HA tag, expressed from pBI-FGE-HA in mammalian cells) (human) (UniProt Q8NBK3); assay: cell-based or functional assay
[2] = target: T1, 23 amino acid substrate peptide Ac-MTDFYVPVSLCTPSRAALLTGRS-NH2 (SEQ ID NO: 46)
T1 chain: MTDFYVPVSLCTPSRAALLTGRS

[3] = system: cysteine-containing substrate peptide; assay: In vitro FGE activity assay with conditioned media from CHO-FD11 cells; assay type: biochemical; conditions: 5 mM GSH vs 2 mM DTT, pH 9.3, conditioned media
Description: FGE activity was assayed using conditioned media that contained either secreted fl-FGE (obtained from CHO-FD FGE-His6 cells) or Δ72-FGE (obtained from CHO-FD Tet-On cells after transient co-transfection with pBI-FGE-HA and pIRES-Furin constructs). After expression for 48 h at 1% or 2.5% FCS containing DMEM, the medium was collected and centrifuged at 500×g for 5 min. The supernatant was analyzed by SDS-PAGE and western blotting and aliquots were directly used for activity testing.
The activity assay was performed in triplicates with three sets of conditioned media at pH 9.3 under standard conditions as described earlier (4) with some modifications; no BSA was added to the reaction mixture and 2 mM DTT or 5 mM GSH were used as reducing agents.
The inventors have recently shown that the N-terminal part of FGE (residues 34-68) is essential to activate sulfatases in vivo (12). By contrast, the N-terminal extension was not required for in vitro FGly-generating activity of purified secreted Δ72-FGE. […] To assess the physiological consequence of the N-terminal truncation by furin on the function of FGE, the inventors analyzed the FGly-generating activity of the processed and the unprocessed forms of secreted FGE in the presence of glutathione (GSH), a physiological reductant, or DTT serving as a control. […]

[4] = Stability of purified recombinant FGE upon storage (SDS-PAGE, Coomassie staining or western blotting); assay type: physicochemical
Description: Purified enzymes are preferably stored frozen at −20° C. or −80° C., but it is known that the freeze-thaw cycle can lead to a decrease in the stability of proteins and/or accompanied loss of enzymatic activity. To minimize this effect, it is common to add stabilizing agents to preserve the stability and functionality of proteins during long-term storage. Analyses of conditions that affect the stability of purified recombinant fl-FGE-R69A/R72A and Δ72-FGE-wt were performed. The stability was assessed by analyzing the purified protein by SDS-PAGE and subsequently visualized by Coomassie staining or western blotting using FGE anti-serum as described above.
Generation of truncated FGE was increasingly detected upon removing the imidazole by size exclusion chromatography (Panel SEC, FIG. 17A). To gain further insights, aliquots of the purified fraction from size exclusion chromatography were incubated at 4° C. for either 3.5 h or 20 h in the presence of various additives like NaCl, imidazole, arginine and glycerol and later assessed by western blot using FGE anti-serum.

[5] = system: 23-aa long substrate peptide Ac-MTDFYVPVSLCTPSRAALLTGRS-NH2; assay: In vitro FGE activity assay (MALDI-ToF MS) with purified recombinant FGE from insect cells; assay type: biochemical; conditions: for pH of maximal activity: MTGC buffer pH 6.5-11.0; for FGly generation in substrate peptide in presence of DTT: pH 9.3, 37° C.; for dependence of activity on reducing agent (DTT or GSH): in vitro; for specific activity: purified from Baculovirus expression system (Example 7); for DTT concentration of maximal activity: 0-15 mM DTT, pH 9.3, 15 min 37° C.
Description: a) fl-FGE-R69A/R72A (SEQ ID NO: 4) is active and e.g. generates FGly within a 23-aa long substrate peptide 16 pmol of the 23 amino acid (aa) long peptide Ac-[…]-NH2 (SEQ ID NO:46) were incubated with 12 ng of fl-FGE-R69A/R72A for 20 min at 37° C. under assay conditions (50 mM Tris, 67 mM NaCl, 15 μM CaCl2, 0.33 mg/mL BSA, 2 mM DTT, pH 9.3 in a total volume of 30 μL).
The reaction was stopped by adding 3 μL of 20% trifluoroacetic-acid (TFA), immediately followed by vortexing and by a short centrifugation at 10000×g. The peptide was purified and concentrated by C18-Zip-Tip treatment. Therefore the Zip-Tip was prepared by pipetting three times 10 μL of 50% acetonitrile, 0.05% TFA in water and three times 10 μL 0.1% TFA in water. The 33 μL sample was pipetted 10 times up and down. The bound peptide was washed by pipetting 10 times 10 μL 0.1% TFA in water and was eluted in 10 μL 50% acetonitrile, 0.05% TFA in water by pipetting 10 times up and down. For MS-analysis the following matrix was prepared freshly: 40 μL of a saturated α-cyano-hydroxycinnamic acid solution in aceton were added to 10 μL of a solution containing 10 mg/mL nitrocellulose in 50% Aceton/50% Isopropanol (v/v). 0.5 μL of the matrix were spotted onto a polished steel target and 1 μL of the purified sample was added. The dried sample spot was analyzed by MALDI-ToF mass spectrometry using the Ultra flextreme spectrometer from Bruker Daltronics. The cysteine containing substrate peptide (2526.28 [M+H]^+) and the FGly containing product peptide (2508.29 [M+H]^+) were detected.
b) fl-FGE-R69A/R72A (SEQ ID NO:4) is able to generate FGly by using GSH as reductant:10 times stock solutions of DTT and GSH were prepared in 20 mM Tris pH 9.3. For the reaction, 13 ng of Baculo-fl-FGE were incubated with 16 pmol of the 23 aa-long substrate peptide, 2 mM DTT or 5 mM reduced glutathione for 15 min at 37° C. under assay conditions (50 mM Tris, 67 mM NaCl, 15 μM CaCl2, 0.33 mg/mL BSA, pH 9.3 in a total volume of 30 μL). The reactions were stopped and prepared further for MS-analysis as described above. The ratio of the intensity of the FGly-product peptide divided by the sum of the substrate and product intensities multiplied with 100 yields %-turnover of the substrate peptide. Based on that, specific activities were calculated.
The dependence of FGly-generating activity of recombinant fl-FGE-R69A/R72A on the reducing agents DTT and GSH were analyzed at pH 9.3 under standard assay conditions (FGE and substrate peptide were incubated at 37° C. in 50 mM Tris/HCl, 67 mM NaCl, and 0.33 mg/ml BSA in 30 μl volume. The reaction was started by addition of substrate) using a MALDI-mass spectrometry based in vitro activity assay (Ennemann et al., 2013 and FIG. 7).
The pH-dependence for in vitro activity of recombinant fl-FGE-R69A/R72A and Δ72-FGE-wt was analyzed under optimal DTT and GSH concentrations. Accordingly, the activity of recombinant fl-FGE-R69A/R72A in the presence of 2 mM DTT, under standard assay conditions, was measured in buffers of pH ranging from pH 6.5 to 11.0 (FIG. 19A). […] In the presence of 5 mM GSH, the maximal activity was also observed at pH 9.3 and a very similar activity profile ranging from pH 7.5 to 11 (FIG. 19B). […] In summary, fl-FGE-R69A/R72A requires less alkaline conditions for optimum activity than Δ72-FGE-wt.

## human furin (Gene ID 5045), expressed from a pIRES construct in CHO-FD11 cells (from UniProt P09958 108-794)
[1]
  share of Δ72-FGE in secretions of CHO-FD11 Tet-On cells co-expressing FGE and the PC (western blot): 100%

B1: Δ72-FGE (SEQ ID NO: 6), produced in High Five insect cells (protein)
chain: ADLGSSMEFEANAPGPVPGERQLAHSKMVPIPAGVFTMGTDDPQIKQDGEAPARRVTIDAFYMDAYEVSNTEFEKFVNSTGYLTEAEKFGDSFVFEGMLSEQVKTNIQQAVAAAPWWLPVKGANWRHPEGPDSTILHRPDHPVLHVSWNDAVAYCTWAGKRLPTEAEWEYSCRGGLHNRLFPWGNKLQPKGQHYANIWQGEFPVTNTGEDGFQGTAPVDAFPPNGYGLYNIVGNAWEWTSDWWTVHHSVEETLNPKGPPSGKDRVKKGGSYMCHRSYCYRYRCAARSQNTPDSSASNLGFRCAADRLPTMDSGRGSHHHHHHH
[2]
  conversion of the Cys substrate peptide to the FGly product peptide (MALDI-ToF MS), DTT as reductant: The Δ72-FGE (SEQ ID NO: 6) variant also converts the cysteine-containing substrate peptide to the FGly-containing product peptide in presence of the reductant DTT

B2: Δ72-FGE: human FGE that lacks the N-terminal domain (amino acid residues 1-72), SEQ ID NO:6 (protein)
chain: B1 chain
modifications: cleaved FGE in position 72 , inacitve FGE
[3]
  FGly-generating activity (% substrate turnover) in the presence of GSH normalized to that of DTT (100%): barely active in the presence of GSH
[4]; thawing from −80° C. and short-term storage at 4° C.
  molecular integrity after storage: did not lead to any change in the molecular integrity
[5]; 2 mM DTT
  pH of maximal activity: ~10
  FGly generation in substrate peptide in presence of DTT: converts the cysteine-containing substrate peptide to the FGly-containing product peptide
[5]; pH 9.3
  dependence of activity on reducing agent (DTT or GSH): strictly relies on DTT
[5]
  specific activity: 70-90 mU/mg

B3: dimeric FGE: disulfide-bridged dimeric form of recombinant fl-FGE-R69A/R72A separated by size exclusion chromatography (protein)
chain: ADEFSQEAGTGAGAGSLAGSCGCGTPQRPGAHGSSAAAHAYSAEANAPGPVPGERQLAHSKMVPIPAGVFTMGTDDPQIKQDGEAPARRVTIDAFYMDAYEVSNTEFEKFVNSTGYLTEAEKFGDSFVFEGMLSEQVKTNIQQAVAAAPWWLPVKGANWRHPEGPDSTILHRPDHPVLHVSWNDAVAYCTWAGKRLPTEAEWEYSCRGGLHNRLFPWGNKLQPKGQHYANIWQGEFPVTNTGEDGFQGTAPVDAFPPNGYGLYNIVGNAWEWTSDWWTVHHSVEETLNPKGPPSGKDRVKKGGSYMCHRSYCYRYRCAARSQNTPDSSASNLGFRCAADRLPTMDSGRGSHHHHHHH
[4]
  stability of dimeric vs monomeric form: more stable than monomeric fl FGE forms
[5]
  DTT concentration of maximal activity: 0.1 to 1 mM
[5]; pH 9.3
  DTT concentration for optimal activity under in vitro conditions: 0.1 to 2 mM

B4: fl-FGE-R69A/R72A: human full length FGE variant, Arginine-69 and Arginine-72 converted to Alanine, non-cleavable furin motif, SEQ ID NO:4 (protein)
chain: B3 chain
modifications: double fl FGE variant R69A / R72A
[4]; 250 mM imidazole, one freeze-thaw cycle, two weeks at −80° C.
  stability with added imidazole: more stable
[4]; Ni-NTA fractions containing 250-500 mM imidazole, long-term storage −80° C.
  truncated fragment (~37 kDa) of the total protein after thawing: less than 5%
[4]; Ni-NTA fractions containing 250-500 mM imidazole, −80° C.
  stability after long-term storage: highly stable
[4]; SEC fraction (imidazole removed), 4° C., 3.5 h or 20 h
  truncation on prolonged incubation: led to generation of truncated fragments
[4]; SEC fraction, 4° C., 250 mM imidazole or 850 mM NaCl
  truncation on incubation with additive: prevented further increase of FGE truncation
[5]; 2 mM DTT, 15 min 37° C., pH 9.3, 4 measurements
  specific activity in presence of the control reductant DTT: 24.1±1.7 mU/mg
[5]; 2 mM DTT
  pH of maximal activity: 9.3
  FGly generation in substrate peptide in presence of DTT: is active
[5]; 5 mM GSH
  pH of maximal activity: 9.3
[5]; 5 mM reduced glutathione, 15 min 37° C., pH 9.3, 4 measurements
  specific activity in presence of GSH: 15.6±1.3 mU/mg
[5]; 5 mM reduced glutathione, pH 9.3
  FGly generation using GSH as reductant: active in presence of GSH
[5]; pH 9.3
  dependence of activity on reducing agent (DTT or GSH): fully functional in the presence of either DTT or glutathione (GSH)
  activity in the absence of externally added reducing agents: very low activity
[5]
  specific activity: 33 mU/mg

B5: monomeric FGE (protein)
chain: B3 chain
[5]
  DTT concentration of maximal activity: 2 mM
[5]; pH 9.3
  DTT concentration for optimal activity under in vitro conditions: 1 to 10 mM
